{"source": "paper PMC2172558", "about": "(The Journal of Cell Biology, 2004)", "biological_target": "T1, recombinant, purified Xenopus β-catenin (Xenopus, UniProt P26233 1-781)", "T1 sequence": "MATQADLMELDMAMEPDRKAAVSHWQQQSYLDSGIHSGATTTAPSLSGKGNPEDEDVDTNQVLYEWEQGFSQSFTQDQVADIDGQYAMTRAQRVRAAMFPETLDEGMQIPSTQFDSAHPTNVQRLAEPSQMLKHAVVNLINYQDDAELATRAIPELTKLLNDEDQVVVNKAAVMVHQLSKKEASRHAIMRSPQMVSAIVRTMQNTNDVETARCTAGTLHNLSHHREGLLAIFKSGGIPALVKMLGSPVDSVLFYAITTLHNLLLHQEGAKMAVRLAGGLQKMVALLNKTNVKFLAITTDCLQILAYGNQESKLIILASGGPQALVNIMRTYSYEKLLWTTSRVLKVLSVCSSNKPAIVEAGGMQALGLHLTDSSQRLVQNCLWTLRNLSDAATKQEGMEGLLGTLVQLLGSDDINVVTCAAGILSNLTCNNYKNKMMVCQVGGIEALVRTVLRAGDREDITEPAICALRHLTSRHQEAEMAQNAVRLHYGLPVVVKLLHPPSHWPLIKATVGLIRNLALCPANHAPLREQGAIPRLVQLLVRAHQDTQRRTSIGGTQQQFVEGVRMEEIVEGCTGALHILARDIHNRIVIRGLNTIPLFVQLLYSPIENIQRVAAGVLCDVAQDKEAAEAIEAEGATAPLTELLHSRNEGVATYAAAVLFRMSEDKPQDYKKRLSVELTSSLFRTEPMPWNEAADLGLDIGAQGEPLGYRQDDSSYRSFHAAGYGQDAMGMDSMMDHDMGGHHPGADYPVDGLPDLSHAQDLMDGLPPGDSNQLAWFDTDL", "assay": "pull-down", "data": [{"binder": "Xenopus C-cadherin cytoplasmic domain GST fusion protein (domain or fragment) not shown", "values": [{"measurement": "binding result", "value": "binds"}]}]}
